From patent publication US20200319204A1
Each block holds one substance with its values, some of them ahead of it.

Key:
[1] = target: semisynthetic H3K4me3 nucleosome (internal standard ladder) (human) (UniProt Q71DI3); assay: ICeChIP-qPCR, capture of barcoded nucleosome standards doped into mESC nucleosomes
[2] = target: unmodified nucleosome (internal standard) (human) (UniProt Q71DI3); assay: as above
[3] = target: semisynthetic H3K36me3 nucleosome (internal standard) (human) (UniProt Q71DI3); assay: as above
[4] = target: semisynthetic H3K27me3 nucleosome (internal standard ladder) (human) (UniProt Q71DI3); assay: multi-standard ICeChIP-seq, six nucleosome ladders doped equimolar into mESC nuclei
[5] = target: semisynthetic H3K9me3 nucleosome (internal standard ladder) (human) (UniProt Q71DI3); assay: as above

apparent specificity (on target signal against H3K36me3 nucleosome) [1]: 30 fold | enrichment (internal standard, ICeChIP-qPCR) [1]: 81 | enrichment (internal standard, ICeChIP-qPCR) [2]: 1.9 | enrichment (internal standard, ICeChIP-qPCR) [3]: 2.8
Substance: H3K4me3 antibody (Active Motif AM39159)

percent of the on-target signal [4]: 10%
Substance: H3K9me3 antibody M309M3-A (Hattori et al., 2013)

percent of the on-target signal [5]: 26%
Substance: H3K27me3 antibody (Millipore 07-449)
